Measurements published in article PMC3955401 (Nature, 2013).
No end group written: not given here.

Legend:
Experiment in all cases: pull-down
[1] = biological target: GST-53BP1 Tudor (UniProt Q12888 1484-1603)
[2] = biological target: GST-53BP1 Tudor-UDR L1619A (UniProt Q12888 1484-1631, L1619A)
[3] = biological target: GST-53BP1 Tudor-UDR (UniProt Q12888 1484-1631)

Measured: binding result

Sequence of GST-53BP1 Tudor (Q12888 1484-1603): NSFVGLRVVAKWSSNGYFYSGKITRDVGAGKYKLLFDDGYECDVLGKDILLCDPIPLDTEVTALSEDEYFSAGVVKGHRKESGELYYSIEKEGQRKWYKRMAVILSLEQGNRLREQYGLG
Sequence of GST-53BP1 Tudor-UDR L1619A (Q12888 1484-1631 L1619A): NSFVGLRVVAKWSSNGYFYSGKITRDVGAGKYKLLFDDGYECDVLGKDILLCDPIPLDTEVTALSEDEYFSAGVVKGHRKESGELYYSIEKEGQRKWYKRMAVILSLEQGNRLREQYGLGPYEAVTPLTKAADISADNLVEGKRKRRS
Sequence of GST-53BP1 Tudor-UDR (Q12888 1484-1631): as the sequence (Q12888 1484-1631 L1619A) above, with A136L counted along it

YGKGGAKRHRK(dimethyl)VLRD [H4K20me2 peptide]
binds: all assays above
